The values that follow are results of earlier work, collected in PMC11335090.

Broadly, the Kd is the equilibrium constant for the complex coming apart.

This series has as its target AXL (Homo sapiens) (UniProt P30530).
Sequence of UniProt P30530 (P30530 26-451): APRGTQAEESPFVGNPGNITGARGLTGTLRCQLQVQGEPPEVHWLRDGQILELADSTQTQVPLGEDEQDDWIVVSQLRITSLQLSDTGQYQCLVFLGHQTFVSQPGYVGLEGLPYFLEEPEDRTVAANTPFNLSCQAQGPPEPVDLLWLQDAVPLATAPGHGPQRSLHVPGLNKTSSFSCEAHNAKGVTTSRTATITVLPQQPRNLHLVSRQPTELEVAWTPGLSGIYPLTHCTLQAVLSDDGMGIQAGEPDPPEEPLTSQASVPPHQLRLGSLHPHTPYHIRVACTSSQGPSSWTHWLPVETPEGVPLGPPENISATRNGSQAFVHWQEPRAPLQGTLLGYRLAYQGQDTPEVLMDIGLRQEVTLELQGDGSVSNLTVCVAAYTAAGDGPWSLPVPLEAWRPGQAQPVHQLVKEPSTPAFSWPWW

With GAS6 (from UniProt Q14393), the Kd is 0.032 nM.
